# Experiment: soluble on expression in E. coli; label from the status in PepcDB or PDB records
row,Sequence,soluble on expression in E. coli
1,MGQDTDMLNTYQQLVRTPSVRPGQDVRLQAPGTRTGLLKLLSTVSQDKQGCLGSGDGVPNQDLQQRSQSSRQTAKKDRKPRGQSKKGQGSEESEDHFPLLPRKPSFPFQWAWESIATDVRAVLQPSSPTPGHQALPMPSSFSQRQSRRKSTANLPEAHGCCWKTEAQNLKARQQLGAWGGVSIPTGKGELGSEPPSGLQLPGRRPGSGSASDKQVQLQSLGAEEAERGLSSGVLPQRPRRGSISEEEQFSEATEEAEEGEHRTPCRRRAGCQRKGQISGEEASDEGEVQGQSQGSSPSFNNLRRRQWRKTRAKELQGPWDLEKLHRQLQRDLDCGPQKLPWKTLRAAFQASKRNGKAYASGYDETFVSANLPNRTFHKRQEATRSLLQAWERQRQEERQQAELRRARTQHVQRQVAHCLAAYAPRGSRGPGAAQRKLEELRRQERQRFAEYQAELQGIQHRVQARPFLFQQAMQANARLTVTRRFSQVLSALGLDEEQLLSEAGKVDREGTPRKPRSHRSVGVRMEHSPQRPPRTEPTGSQPDRHYNPSLDPECSP,not soluble
2,SLLCIALALGILVKYQNSQDVSSVKPDYFIDKQEDLISLNKDHYEIGIFQENEFDNNKSVSILEQKIQEIDDLNTSLNEQNLSSVEQNLSLEQNQSLEQNFILKDTNLTQDQNLTFNEDIHLNKISKKPKLAIIIDDMANASQVRGLKALNLKLNPSFFPPDKNHSETPKLALKFDFYMVHLPLAAINYNKPELDTLNPNDSKERIFKKIKQIKKDFKDLRYINNHTGSLFTSNEEAMRKLYEVLKNQNIFFVDSKTIGNSKANKIAKELNVPYIQRDVFLDNEDDVNYVKKQLESAVKLTQKKGFVIAIGHPRKNTFKALEQSKDLLKSVDLVYLSEIYGK,soluble
3,MIDQFMSMSELIDHTEEHKDWQILYNERVAKSLITAVHGGAIERGTSEIAQLISEIGGYSFYTFKGIRKNKNHELHVTSKHFDEPILNELVPTHEVVVSLHGCMGNDVAVYIGGKDLELSYEITQQLQKIGIVVKPAPAHIAGMQTENFVNKGKRDAGVQLELTVALRKQCFKNNKYNLHDRENRENWSQLMFSFSTAIANALKILNDLEHHHHHH,not soluble
4,MTEFTPFFDGSNQLNYLKFVILRFHGVSKRKICKMYNFAYFRILEVCEMAKKNDYRFTYKDYKFLKQYGVSNTFICKMYHISIEDLEFFEVMNR,not soluble
5,STGMRPRGAAFAAGPPGDLHLGTAIGFAGAIWRSRSPAMSTLLDIKSSVLRQVQVCPSFRRRTEQDPGSASADPQEPATGAWKPGDGVEFFAHMRLMLKKGEGRQGLPCLEVPLRSGSPAPPEPVDPSLGLRALAPEEVEMLYEEALYTVLYRAGTMGPDQVDDEEALLSYLQQVFGTSLEEHTEAIERVRKAKAPTYALKVSVMRAKNLLAKDPNGFSDPYCMLGILPASDATREPRAQKEQRFGFRKGSKRGGPLPAKCIQVTEVKSSTLNPVWKEHFLFEIEDVSTDQLHLDIWDHDDDVSLVEACRKLNEVIGLKGMGRYFKQIVKSARANGTAGPTEDHTDDFLGCLNIPVREVPVAGVDRWFKLEPRSSASRVQGHCHLVLKLITTQRDTAMSQRGRSGFLSHLLLLSHLLRLEHSAEEPNSSSWRGELSTPAATILCLHGAQSNLSPLQLAVLHWQVSSRHHQTCTLDYSYLLGLLEDMQAHWEEAPSLPQEQEESLADSLSAFSEFGLQLLRQLRDYFPATNSTAVHRLELLLKCLGKLQLFQPSFEICPFESELNMDIAAALKRGNREWYDRILNDKSPREQPGPQRLPGLVVLADAVYDDLQFCYSVYASLFHSILNVDVFTLTFRQLERLVAEEAWVLTEELSPKMTLEVASGLFELYLTLADLQRFWDSIPGRDSRSLALAGIHAPFLPAVKLWFQVLRDQAKWRLQGAVDMDTLEPVDASSRHSSSAATAGLCLSHIQELWVRLAWPDPAQAQGLGTQLGQDVCEATLFYTELLRKKVDTQPGAAGEAVSEALCVVLNNVELVRKAAGQALKGLAWPEGATGPEGVLPRPLLSCTQALDDDLQREAHTVTAHLTSKMVGDIRKYVQHISLSPDSIQNDEAVAPLMKYLDEKLALLNASLVKGNLSRVLEALWELLLQAILQALGANRDVSADFYSRFHFTLEALVSFFHAEGQGLPLESLRDGSYKRLKEELRLHKCSTRECIEQFYLDKLKQRTLEQNRFGRLSVRCHYEAAEQRLAVEVLHAADLLPLDANGLSDPFVIVELGPPHLFPLVRSQRTQVKTRTLHPVYDELFYFSVPAEACRRRAACVLFTVMDHDWLSTNDFAGEAALGLGGVTGVARPQVGGGARAGQPVTLHLCRPRAQVRSALRRLEGRTSKEAQEFVKKLKELEKCMEADP,soluble
6,QSATARPMAIALGVAEPAPRGFLLIGANRVAREIGQALARYDRRVLMTDSNWEYISQVRMMGLDYYYGNPISSHADDNLNMIGIGQVVALTPDQHFNIMACMQFVDEFGEDKVHCLQKVKTNGNGSEKHSVAQEYHGKLLMGGNVSYTQLASLLSRGAEIKHTKLSENFTYQDYLEHHKTNLVIPLFNVEDKGKIQFCDDPDQFAPSTTSTIVSLILPESAQ,not soluble
7,MTTMVNVDTLPEYEKSQIKRALELGTVMTVFNARKSTPERRTVQMIMETRQVAWSKTADKIEGFLDIMEIKEIRPGKNSKDFERAKAVRHKAECCFTILYGTQFVLSTLSLATDSKEDAVKWLSGLKILHQEAMSASTPTMIESWLRKQIYSVDQTRRNSISLRELKTILPLVNFKVSGIKFLKDKLVEIGAQKDELSFEQFHLFYKKLMFDQQKSILDEFKKDSSVFILGNTDRPDASAVYLQDFQRFLLHEQQELWAQDLNKVRERMTKFIDDTMRETAEPFLFVDEFLTYLFSRENSIWDEKYDAVDMQDMNNPLSHYWISSSHNTYLTGDQLRSESSTEAYIRCLRAGCRCIELDCWDGPDGKPIIYHGWTRTTKIKFDDVVQAIRDHAFVTSSFPVILSIEEHCSVEQQRHMAKVFKEVLGDMLLTKPTEASADQLPSPSQLREKIIIKHKKLGPKGDVDVNVEDKKDEHKPQGELYMWDSIDQKWTRHYCAIADAKLSFGDDIEQAVEEEPVQDTPPTELHFGEKWFHKKVESRTSAEKLLQEYCAETGAKDGTFLVRESETFPNDYTLSFWRSGRVQHCRIRSTMENGVMKYYLTDNLTFNSIYALIQHYREAHLRCAEFELRLTDPVPNPNPHESKPWYYDSLSRGEAEDMLMRIPRDGAFLIRKREGTNSYAITFRARGKVKHCRINRDGRHFVLGTSAYFESLVELVSYYEKHALYRKMRLRYPVTPELLERYNMERDINSLYDVSRMYVDPSEINPSMPQRTVKALYDYKAKRSDELTFCRGALIHNVSKEPGGWWKGDYGTRIQQYFPSNYVEDISAGDAEEMEKQIIEDNPLGSLCKGILDLNTYNVVKAPQGKNQKAFVFILEPKKQGDPPVEFATDRVEELFEWFQSIREITWKMDTKENNMKYWERNQSIAIELSDLVVYCKPTSKTKDHLENPDFREIRSFVETKADSIVRQKPVDLLRYNQKGLTRVYPKGQRVDSSNYDPFRLWLCGSQMVALNFQTPDKYMQMNHALFSLNGRTGYVLQPESMRSEKYDPMPLESQRKILMTLTVKVLGARHLPKLGRSIACPFVEVEICGAEYDSNKFKTTVVNDNGLSPVWAPTQEKVTFEIYDPNLAFLRFVVYEEDMFSDPNFLAHATYPIKGIKSGFRSVPLKNGYSEDIELASLLVFCEMRPVLESEEELYSSCRQLRRRQEELNNQLFLYDTHQNLRGANRDALVKEFNVNENQLQLYQEKCNRRLREKRVSNSRFYS,soluble
8,MGSDKIHHHHHHMINQVYRLVSERQFEVANVDESLTGDVVVVRPTHLSICAADQRYYTGSRGKEMLSKKLPMALIHEGVGEVVYDATKEFKPGAKVVMIPNTPFENDPVIAENYLRSSKFRSSGYDGLMQDYVFMRRDRVVALPDDINMKVAAFSELISVAVHAILRFEGKSNANRESFGVWGDGNLGFITSLLLKNWYPDSKVYIFGKTPYKLDFFSFVDGAYAIDDVPADLVIDQAFECAGGMGSQYAVSQIIDVIKPEGTISLLGVSEYPIEFNSRMVLEKGLTVYGSSRSGRVDFEKTVEFLSTNKRGVEYLQNLVGEVHTVHSIQDVIEAFEADLRSPWGKSVMEWKI,not soluble
9,MKTWLTTLILSLSTLGLAHADVATTQQNLKKNFPEIPVSAVNTTPVKGVYEVITEGQIVYTNDDAQYFFVGNLVDPKNQRNLTAERMQQLNKIDVSTLPLNQAIKHVKGNGKRTLYIFSDPDCPYCQRLEKELTAVDNVTIYLFLFPLTTLHPNAETIATQIWCSKNQYQAWQDYLLNHKAPTASQKCSTPIQKNLALGQKLNINGTPTMYLKNGERIAGAMQAGQLNTLLDQAQ,not soluble
